Measurements as given in PMC4691197 (PLoS ONE, 2015).

Experiments:
CFP WT βA3-crystallin = molecular target: T1, CFP WT βA3-crystallin (UniProt P05813 1-215); assay: FRET or BRET; FLIM-FRET in live HeLa cells co-transfected with CFP βA3-crystallin (donor) and YFP-tagged acceptors; donor life-time after 405 nm pulsed excitation; E = 1-TFRET/TCFP with TCFP 2.8 ns; 5-6 cells from 3 samples; conditions: partners not purified
T1 construct: βA3-crystallin, wild type; Surmise: N1 vectors place the fluorescent protein at the C-terminus of the insert; Expressed as ~51 kDa protein; degraded products were also seen on blots; also called CFP βA3-crystallin; βA3- CFP; source: HeLa, transfected, in live cells

[1] = molecular target: T2, Recombinant His-tagged WT βA3-crystallin (UniProt P05813 1-215); assay: SPR; BIACORE 2000; βA3-crystallin immobilised on a CM5 chip by EDC/NHS to ~2500 RU; analytes 5 μM-25 μM at 20 μL/min; room temperature; 50 mM sodium phosphate, pH 7.8, 150 mM NaCl; regeneration with 1 M NaCl; duplicates; 1:1 Langmuir fit; conditions: both partners purified
T2 construct: βA3-crystallin, wild type; Surmise: cloning into Nhe I/Xho I of pET 28b with a stop codon in the insert gives an N-terminal His tag; no cleavage is mentioned

Binder | FRET efficiency (CFP WT βA3-crystallin) [%] | mean life-time of the donor CFP βA3-crystallin (CFP WT βA3-crystallin) [ns] | Kd [1] [nM]
GPRKQVSGPERTIPITREEKPAVTAAPKK (domain or fragment, UniProt P02511 147-175, looked up, αB-crystallin C-terminal extension, residues 147-175; also called αB CTE-YFP; source: HeLa, transfected, in live cells) [YFP αB CTE (C-terminal extension of αB-crystallin, 147–175 amino acids)] | 14 | 2.5 ± 0.2 | 
YFP αB CD (core domain of αB-crystallin, 65–146 amino acids) (domain or fragment, UniProt P02511 65-146, looked up, αB-crystallin core domain, residues 65-146; also called αB CD-YFP; source: HeLa, transfected, in live cells) LSEMRLEKDRFSVNLDVKHFSPEELKVKVLGDVIEVHGKHEERQDEHGFISREFHRKYRIPADVDPLTITSSLSSDGVLTVN | 14 | 2.5 ± 0.2 | 
YFP αB NTD (N-terminal domain of αB-crystallin, 1–64 amino acids) (domain or fragment, UniProt P02511 1-64, looked up, αB-crystallin N-terminal domain, residues 1-64; also called αB NTD-YFP; source: HeLa, transfected, in live cells) MDIAIHHPWIRRPFFPFHSPSRLFDQFFGEHLLESDLFPTSTSLSPFYLRPPSFLRAPSWFDTG | 32 | 2.1 ± 0.3 | 
YFP WT αB-crystallin (natural protein, UniProt P02511 1-175, looked up, αB-crystallin, wild type, in pZS Yellow1-N1; Surmise: whole αB-crystallin (1-175, as the domain limits imply) with the fluorescent protein at the C-terminus (N1 vector); Expressed as ~46 kDa protein; also called WT YFP αB-crystallin; YFP αB; source: HeLa, transfected, in live cells) MDIAIHHPWIRRPFFPFHSPSRLFDQFFGEHLLESDLFPTSTSLSPFYLRPPSFLRAPSWFDTGLSEMRLEKDRFSVNLDVKHFSPEELKVKVLGDVIEVHGKHEERQDEHGFISREFHRKYRIPADVDPLTITSSLSSDGVLTVNGPRKQVSGPERTIPITREEKPAVTAAPKK | 18 | 2.4 ± 0.2 | 
Recombinant His-tagged WT αB-crystallin (natural protein, UniProt P02511 1-175, looked up, αB-crystallin, wild type; Surmise: N-terminal His tag from pET 28b) MDIAIHHPWIRRPFFPFHSPSRLFDQFFGEHLLESDLFPTSTSLSPFYLRPPSFLRAPSWFDTGLSEMRLEKDRFSVNLDVKHFSPEELKVKVLGDVIEVHGKHEERQDEHGFISREFHRKYRIPADVDPLTITSSLSSDGVLTVNGPRKQVSGPERTIPITREEKPAVTAAPKK |  |  | 5.75
YFP αB N146D crystallin (natural protein, UniProt P02511 1-175, looked up, αB-crystallin N146D, made by site-directed mutagenesis of the pZS Yellow1-N1 construct of αB-crystallin; Same limits as m12; source: HeLa, transfected, in live cells) MDIAIHHPWIRRPFFPFHSPSRLFDQFFGEHLLESDLFPTSTSLSPFYLRPPSFLRAPSWFDTGLSEMRLEKDRFSVNLDVKHFSPEELKVKVLGDVIEVHGKHEERQDEHGFISREFHRKYRIPADVDPLTITSSLSSDGVLTVDGPRKQVSGPERTIPITREEKPAVTAAPKK | 22 | 2.2 ± 0.3 | 
Recombinant His-tagged αB-crystallin N146D (natural protein, UniProt P02511 1-175, looked up, αB-crystallin with the deamidation-mimicking change N146D, made by site-directed mutagenesis of the pET 28b construct of WT αB; Surmise: N-terminal His tag from pET 28b; also called αB N146D) MDIAIHHPWIRRPFFPFHSPSRLFDQFFGEHLLESDLFPTSTSLSPFYLRPPSFLRAPSWFDTGLSEMRLEKDRFSVNLDVKHFSPEELKVKVLGDVIEVHGKHEERQDEHGFISREFHRKYRIPADVDPLTITSSLSSDGVLTVDGPRKQVSGPERTIPITREEKPAVTAAPKK |  |  | 5.05
Recombinant His-tagged αB-crystallin N78D (natural protein, UniProt P02511 1-175, looked up, αB-crystallin with the deamidation-mimicking change N78D, made by site-directed mutagenesis of the pET 28b construct of WT αB; Surmise: N-terminal His tag from pET 28b; also called αB N78D) MDIAIHHPWIRRPFFPFHSPSRLFDQFFGEHLLESDLFPTSTSLSPFYLRPPSFLRAPSWFDTGLSEMRLEKDRFSVDLDVKHFSPEELKVKVLGDVIEVHGKHEERQDEHGFISREFHRKYRIPADVDPLTITSSLSSDGVLTVNGPRKQVSGPERTIPITREEKPAVTAAPKK |  |  | 2.46
YFP αB N78D crystallin (natural protein, UniProt P02511 1-175, looked up, αB-crystallin N78D, made by site-directed mutagenesis of the pZS Yellow1-N1 construct of αB-crystallin; Same limits as m12; source: HeLa, transfected, in live cells) MDIAIHHPWIRRPFFPFHSPSRLFDQFFGEHLLESDLFPTSTSLSPFYLRPPSFLRAPSWFDTGLSEMRLEKDRFSVDLDVKHFSPEELKVKVLGDVIEVHGKHEERQDEHGFISREFHRKYRIPADVDPLTITSSLSSDGVLTVNGPRKQVSGPERTIPITREEKPAVTAAPKK | 36 | 1.6 ± 0.3 | 
